Measured values reported in PMC7875320.

Biological target: human insulin (Homo sapiens, UniProt P01308;P01308 25-54;90-110)
Experiment: graphene field-effect transistor

Sequence of human insulin (P01308 25-54, chain 1 of 2): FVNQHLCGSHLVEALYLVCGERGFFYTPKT
Sequence of human insulin (P01308 90-110, chain 2 of 2): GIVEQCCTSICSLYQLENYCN

B1: IGA3 (structured_DNA)
DNA: GGTGGTGGGGGGGGTTGGTAGGGTGTCTTC
modifications: 5'-NH2 (amine)
  Kd: 0.035 µM
